Measured values published in the supplement of paper PMC9112550, “Optimization of the antimicrobial peptide Bac7 by deep mutational scanning” (BMC Biology, 2022).

Test system: Escherichia coli TOP10
Test: shrunken log2 fold change of peptide-encoding DNA abundance (4.5 h post-induction vs induction); higher = less antimicrobial activity (less host growth inhibition)
Conditions: time post-induction: 4.5 h; library: site-saturation at positions 5, 18, 19, 20
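Further: peptides expressed intracellularly from a pBAD plasmid library in pooled LB shake-flask culture, induced with 0.3% L-arabinose, DNA abundance read by NGS, three biological replicates, DESeq2 with apeglm shrinkage.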

| Sequence | shrunken log2 fold change |
| --- | --- |
| RRIRFRPPRLPRPRPRPLGVPRP | 0.0349 |
| RRIRFRPPRLPRPRPRPLICPRP | -0.286 |
| RRIRFRPPRLPRPRPRPLKNPRP | -0.193 |
| RRIRFRPPRLPRPRPRPLKWPRP | -0.13 |
| RRIRFRPPRLPRPRPRPLLHPRP | -0.247 |
| RRIRFRPPRLPRPRPRPLLKPRP | -0.321 |
| RRIRFRPPRLPRPRPRPLMDPRP | -0.0516 |
| RRIRFRPPRLPRPRPRPLMIPRP | -0.266 |
| RRIRFRPPRLPRPRPRPLMYPRP | -0.323 |
| RRIRFRPPRLPRPRPRPLNSPRP | -0.377 |
| RRIRFRPPRLPRPRPRPLQCPRP | -0.293 |
| RRIRFRPPRLPRPRPRPLQWPRP | -0.0201 |
| RRIRFRPPRLPRPRPRPLRAPRP | 0.821 |
| RRIRFRPPRLPRPRPRPLSMPRP | -0.363 |
| RRIRFRPPRLPRPRPRPLTAPRP | -0.0807 |
| RRIRFRPPRLPRPRPRPLVIPRP | -0.78 |
| RRIRFRPPRLPRPRPRPLWAPRP | -0.151 |
| RRIRFRPPRLPRPRPRPMAPPRP | 0.114 |
| RRIRFRPPRLPRPRPRPMCMPRP | -0.153 |
| RRIRFRPPRLPRPRPRPMDAPRP | 0.111 |
| RRIRFRPPRLPRPRPRPMDFPRP | -0.00674 |
| RRIRFRPPRLPRPRPRPMDLPRP | -0.161 |
| RRIRFRPPRLPRPRPRPMFGPRP | 0.312 |
| RRIRFRPPRLPRPRPRPMFMPRP | -0.14 |
| RRIRFRPPRLPRPRPRPMFNPRP | -0.797 |

| Sequence | shrunken log2 fold change |
| --- | --- |
| RRIRFRPPRLPRPRPRPMHCPRP | -0.253 |
| RRIRFRPPRLPRPRPRPMHPPRP | -0.082 |
| RRIRFRPPRLPRPRPRPMIAPRP | -0.195 |
| RRIRFRPPRLPRPRPRPMIHPRP | -0.0677 |
| RRIRFRPPRLPRPRPRPMITPRP | -0.33 |
| RRIRFRPPRLPRPRPRPMIVPRP | -0.105 |
| RRIRFRPPRLPRPRPRPMKFPRP | -0.681 |
| RRIRFRPPRLPRPRPRPMKIPRP | 0.25 |
| RRIRFRPPRLPRPRPRPMKRPRP | 0.347 |
| RRIRFRPPRLPRPRPRPMKVPRP | -0.344 |
| RRIRFRPPRLPRPRPRPMKWPRP | -0.0607 |
| RRIRFRPPRLPRPRPRPMMAPRP | 0.189 |
| RRIRFRPPRLPRPRPRPMMWPRP | -0.011 |
| RRIRFRPPRLPRPRPRPMPPPRP | 0.55 |
| RRIRFRPPRLPRPRPRPMPYPRP | -0.218 |
| RRIRFRPPRLPRPRPRPMQEPRP | 0.0233 |
| RRIRFRPPRLPRPRPRPMQPPRP | 0.287 |
| RRIRFRPPRLPRPRPRPMRRPRP | 0.542 |
| RRIRFRPPRLPRPRPRPMRWPRP | 0.264 |
| RRIRFRPPRLPRPRPRPMVAPRP | 0.297 |
| RRIRFRPPRLPRPRPRPMVEPRP | -0.0547 |
| RRIRFRPPRLPRPRPRPMVNPRP | -0.171 |
| RRIRFRPPRLPRPRPRPMYAPRP | -0.406 |
| RRIRFRPPRLPRPRPRPMYQPRP | -0.167 |
| RRIRFRPPRLPRPRPRPNCHPRP | -0.313 |

| Sequence | shrunken log2 fold change |
| --- | --- |
| RRIRFRPPRLPRPRPRPNCMPRP | -0.143 |
| RRIRFRPPRLPRPRPRPNCWPRP | -0.358 |
| RRIRFRPPRLPRPRPRPNDDPRP | -0.755 |
| RRIRFRPPRLPRPRPRPNEGPRP | -0.0411 |
| RRIRFRPPRLPRPRPRPNERPRP | 0.047 |
| RRIRFRPPRLPRPRPRPNETPRP | -0.0424 |
| RRIRFRPPRLPRPRPRPNGLPRP | -0.0551 |
| RRIRFRPPRLPRPRPRPNGYPRP | -0.3 |
| RRIRFRPPRLPRPRPRPNHMPRP | -0.567 |
| RRIRFRPPRLPRPRPRPNHPPRP | -0.84 |
| RRIRFRPPRLPRPRPRPNHTPRP | -0.626 |
| RRIRFRPPRLPRPRPRPNIDPRP | -0.463 |
| RRIRFRPPRLPRPRPRPNIIPRP | -0.706 |
| RRIRFRPPRLPRPRPRPNKRPRP | -0.274 |
| RRIRFRPPRLPRPRPRPNLCPRP | 0.00999 |
| RRIRFRPPRLPRPRPRPNLNPRP | -0.504 |
| RRIRFRPPRLPRPRPRPNMDPRP | 1.48 |
| RRIRFRPPRLPRPRPRPNMEPRP | -0.129 |
| RRIRFRPPRLPRPRPRPNNAPRP | -0.271 |
| RRIRFRPPRLPRPRPRPNNFPRP | -0.383 |
| RRIRFRPPRLPRPRPRPNNLPRP | -0.12 |
| RRIRFRPPRLPRPRPRPNNSPRP | -0.685 |
| RRIRFRPPRLPRPRPRPNPMPRP | -0.136 |
| RRIRFRPPRLPRPRPRPNPPPRP | 0.544 |
| RRIRFRPPRLPRPRPRPNQPPRP | -0.136 |

| Sequence | shrunken log2 fold change |
| --- | --- |
| RRIRFRPPRLPRPRPRPNQRPRP | 0.269 |
| RRIRFRPPRLPRPRPRPNRYPRP | -0.319 |
| RRIRFRPPRLPRPRPRPNVFPRP | -0.108 |
| RRIRFRPPRLPRPRPRPNVIPRP | -0.173 |
| RRIRFRPPRLPRPRPRPNWWPRP | -0.0248 |
| RRIRFRPPRLPRPRPRPNYSPRP | -0.8 |
| RRIRFRPPRLPRPRPRPPCFPRP | -0.0777 |
| RRIRFRPPRLPRPRPRPPDAPRP | 0.451 |
| RRIRFRPPRLPRPRPRPPDRPRP | 0.128 |
| RRIRFRPPRLPRPRPRPPFEPRP | 0.347 |
| RRIRFRPPRLPRPRPRPPFYPRP | -0.462 |
| RRIRFRPPRLPRPRPRPPGLPRP | 0.573 |
| RRIRFRPPRLPRPRPRPPGPPRP | 0.897 |
| RRIRFRPPRLPRPRPRPPHWPRP | 0.617 |
| RRIRFRPPRLPRPRPRPPIAPRP | 0.31 |
| RRIRFRPPRLPRPRPRPPIQPRP | 0.0333 |
| RRIRFRPPRLPRPRPRPPMNPRP | -0.0762 |
| RRIRFRPPRLPRPRPRPPPNPRP | 1.33 |
| RRIRFRPPRLPRPRPRPPQKPRP | 0.719 |
| RRIRFRPPRLPRPRPRPPQTPRP | 0.473 |
| RRIRFRPPRLPRPRPRPPQVPRP | -0.00567 |
| RRIRFRPPRLPRPRPRPPRGPRP | 0.685 |
| RRIRFRPPRLPRPRPRPPRSPRP | 0.488 |
| RRIRFRPPRLPRPRPRPPSTPRP | 0.342 |
| RRIRFRPPRLPRPRPRPPVHPRP | 0.119 |

| Sequence | shrunken log2 fold change |
| --- | --- |
| RRIRFRPPRLPRPRPRPPWGPRP | 0.399 |
| RRIRFRPPRLPRPRPRPPWHPRP | 0.087 |
| RRIRFRPPRLPRPRPRPPWMPRP | 0.355 |
| RRIRFRPPRLPRPRPRPQAAPRP | 1.04 |
| RRIRFRPPRLPRPRPRPQAVPRP | 0.0175 |
| RRIRFRPPRLPRPRPRPQCIPRP | -0.0639 |
| RRIRFRPPRLPRPRPRPQDDPRP | -0.493 |
| RRIRFRPPRLPRPRPRPQDEPRP | -0.0187 |
| RRIRFRPPRLPRPRPRPQDRPRP | -0.591 |
| RRIRFRPPRLPRPRPRPQFMPRP | -1.06 |
| RRIRFRPPRLPRPRPRPQGDPRP | 0.014 |
| RRIRFRPPRLPRPRPRPQGPPRP | 0.0563 |
| RRIRFRPPRLPRPRPRPQIDPRP | 0.0185 |
| RRIRFRPPRLPRPRPRPQIGPRP | -0.128 |
| RRIRFRPPRLPRPRPRPQLCPRP | -0.0465 |
| RRIRFRPPRLPRPRPRPQPQPRP | 0.301 |
| RRIRFRPPRLPRPRPRPQRTPRP | -0.101 |
| RRIRFRPPRLPRPRPRPQSWPRP | -0.0287 |
| RRIRFRPPRLPRPRPRPQVTPRP | -0.367 |
| RRIRFRPPRLPRPRPRPQWVPRP | -0.053 |
| RRIRFRPPRLPRPRPRPQWYPRP | -0.981 |
| RRIRFRPPRLPRPRPRPRAFPRP | 0.0447 |
| RRIRFRPPRLPRPRPRPRCRPRP | 0.109 |
| RRIRFRPPRLPRPRPRPRDKPRP | -0.102 |
| RRIRFRPPRLPRPRPRPREGPRP | 0.285 |

| Sequence | shrunken log2 fold change |
| --- | --- |
| RRIRFRPPRLPRPRPRPRESPRP | 0.45 |
| RRIRFRPPRLPRPRPRPRFAPRP | 0.366 |
| RRIRFRPPRLPRPRPRPRFNPRP | -0.196 |
| RRIRFRPPRLPRPRPRPRGHPRP | 0.348 |
| RRIRFRPPRLPRPRPRPRIAPRP | 0.214 |
| RRIRFRPPRLPRPRPRPRKIPRP | 0.0429 |
| RRIRFRPPRLPRPRPRPRLMPRP | -0.0982 |
| RRIRFRPPRLPRPRPRPRLSPRP | -0.194 |
| RRIRFRPPRLPRPRPRPRMTPRP | 0.128 |
| RRIRFRPPRLPRPRPRPRPFPRP | 0.401 |
| RRIRFRPPRLPRPRPRPRPKPRP | 0.98 |
| RRIRFRPPRLPRPRPRPRRCPRP | 0.143 |
| RRIRFRPPRLPRPRPRPRRSPRP | 0.0713 |
| RRIRFRPPRLPRPRPRPRSRPRP | -0.016 |
| RRIRFRPPRLPRPRPRPRVDPRP | -0.055 |
| RRIRFRPPRLPRPRPRPRVKPRP | -0.154 |
| RRIRFRPPRLPRPRPRPRYEPRP | -0.598 |
| RRIRFRPPRLPRPRPRPRYGPRP | -0.299 |
| RRIRFRPPRLPRPRPRPRYQPRP | -0.738 |
| RRIRFRPPRLPRPRPRPSAQPRP | 0.24 |
| RRIRFRPPRLPRPRPRPSATPRP | 0.0473 |
| RRIRFRPPRLPRPRPRPSCDPRP | -0.314 |
| RRIRFRPPRLPRPRPRPSCEPRP | -0.619 |
| RRIRFRPPRLPRPRPRPSDAPRP | -0.00375 |
| RRIRFRPPRLPRPRPRPSDEPRP | -0.308 |
